Reference: patent EP1012244B1

Molecular target: HIV-1 strain IIIB envelope protein gp120/41 on the surface of HIV-1-infected Jurkat cells (HIV-1 strain IIIB) (UniProt P04578)
Experiment: cell-based or functional assay

“CXCR4 protein with an HA epitope tag (from UniProt P61073 1-352) (receptor)” gave a percentage of HIV-1+ cells that were also infected with VSVΔG-CC4 of 90 to 95%.
